Results reported in patent US20200283529A1 (UNIVERSITY OF BRITISH COLUMBIA, published 2020).

Columns and labels:
[1] = biological target: T1, HLA-A*24:02 on FlowPRA Single Antigen beads (human, UniProt P04439-2 25-302 at identity 0.92)); experiment: single antigen FlowPRA bead assay, flow cytometry
T1 construct: Bought HLA class I antigen on One Lambda beads. b2m and peptide are not described
T1 MHC heavy: not shown

[2] = biological target: T2, HLA-A*23:01 on FlowPRA Single Antigen beads (human, UniProt P13749 25-305 (Pan troglodytes entry), limits assumed); experiment: single antigen FlowPRA bead assay, flow cytometry
T2 construct: Bought HLA class I antigen on One Lambda beads. b2m and peptide are not described
T2 MHC heavy: not shown

binding result [1]: no binding | binding result [2]: no binding
B1: BB7.2 antibody (antibody, IgG2b, V domains shown)
VH: QVQLQQSGPELVKPGASVKMSCKASGYTFTSYHIQWVKQRPGQGLEWIGWIYPGDGSTQYNEKFKGKTTLTADKSSSTAYMLLSSLTSEDSAIYFCAREGTYYAMDYWGQGTSVTVSS
VL: DVLMTQTPLSLPVSLGDQVSISCRSSQSIVHSNGNTYLEWYLQKPGQSPKLLIYKVSNRFSGVPDRFSGSGSGTDFTLKISRVEAEDLGVYYCFQGSHVPRTFGGGTKLEIK
notes: also called mouse monoclonal antibody (BB7.2)
